Substitutions are numbered along the chain they refer to. Values joined by “and” are separate entries in the source; they are usually repeats but may differ in a detail not shown here. Equal values may be shown once.
B1: 3-E2-A (antibody, V domains shown)
VH: EVQLQQSGPELVKPGASVKISCKASGYTFTDYYMNWVKQSHGKSLEWIGDINPNNGGTSYTQKFKGKATLTVDKSSSKAYMELRSLTSEDSAVYYCARRGDGHYGGFTYWGQGTLVTVSA
VL: not shown
B2: 10-L24-A (antibody, V domains shown)
VH: B1 VH with P53S, S59T, T61D, K74R, K78T, Y104F
VL: not shown
B3: 2-O12-A (antibody, V domains shown)
VH: B1 VH with P53S, S59T, T61D, K74R, K78T, Y104F
VL: not shown
B4: 4-N22-A (antibody, V domains shown)
VH: QVQLQQPGTELVKPGASVKLSCKASGYTFTNYWMYWVKQRPGQGLDWIGNINPSNGGTNYNEKFKSKATLTVDKSSSTAYMQLSSLTSEDSAVYYCARETGNYWGQGTTLTVSS
VL: DILMTQSPSSMSVSLGDTVSISCHASQGISSNIGWLQQKPGKSFKGLIYHGTNLEDGVPSRFSGSGSGADYSLTISSLESEDFADYYCVQYAQFPYTFGGGTKLEIK
B5: 8-H5-A (antibody, V domains shown)
VH: QVTLKESGPGILQSSQTLSLTCSLSGFSLSTSGMGVSWVRQPSGKGLEWLAHIYWDDDKRYTPSLKSRLTISTDSSRKQVFLKITSVDTADTATYYCARRDLHDYDGWFAYWGQGTLVTVSA
VL: DIVMTQSQKFMSTAVGDRVSVTCKASQNVGTNVAWYQQKPGQSPKALIYSASFRYSGVPDRFSGSGSGTDFTLTISNVQSEDLAEYFCQQYNSYPLTFGSGTKLEIK
B6: 1-B11-A (antibody, V domains shown)
VH: QVQLQQSGPELVKPGASVKISCKASGYTFTDHYINWVKQRPGQGLEWIGWIFPGSGSTYYNEQFKGKATLTVDKSSNTAYMLLSSLTSEDSAVYFCARSGGLRLGFAYWGQGTLVTVSA
VL: DIQMTQTTSSLSASLGDRVTISCRASQDISNYLNWYQQKPDGTVKLLIYYTSRLHSGVPSRFSGSGSGTDYSLTISNLEQEDISTYFCQQVNTLPYTFGGGTKLEIK
B7: 4-M3-A (antibody, V domains shown)
VH: EVQLQQSGPELVKPGDSVKISCKASGYSFTGYFMNWVMQSHGKSLEWIGRINPNNGETFYNQKFKGKATLTVDKSSDTAHMELRSLTSEDSAVYYCARGGTGTGWGQGTTLTVSS
VL: B4 VL with S22T, H50Y, F83L, V89I
B8: 2-H7-A (antibody, V domains shown)
VH: QAYLQQSGAELVRPGASVKMSCKASGYTFTGYTMHWVKQTPRQGLEWIGAIYPENGDTSYNQKFKGKATLTVDKSSSTAYMQLSSLTSEDSAVYFCARDGYDVLYGMDYWGQGTSVTVSS
VL: DIVLTQSPASLAVSLGQRATISCRASKSVSTSGYSYMHWYQQKPGQPPKLLIYLASNLESGVPARFSGSGSGTDFTLNIHPVEEEDAATYYCQHSRELPWTFGGGTKLDIK
B9: 4-K13-A (antibody, V domains shown)
VH: QAYLQQSGAELVRPGASVKMSCKASGYTFTSYTVHWVKQTPRQGLEWIGAIYPGNVDTSYNQNFKGKATLTVDKSSSTAYMQLSSLTSEDSAVYFCARDGYYAMDYWGQGTSVTVSS
VL: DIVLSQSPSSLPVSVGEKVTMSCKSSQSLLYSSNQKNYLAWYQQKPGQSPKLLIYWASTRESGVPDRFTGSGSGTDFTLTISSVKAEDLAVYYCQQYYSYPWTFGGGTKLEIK

biological target: T1, SARS-CoV-2 BA.2 spike trimer variant (SARS-CoV-2 Omicron BA.2, UniProt P0DTC2 16-1213); experiment: ELISA

**Q.** With B1 as the binder, how does the EC50 read?
**A.** 71.6 nM

**Q.** With B2 as the binder, how does the EC50 read?
**A.** 61.9 nM

**Q.** With B3 as the binder, how does the EC50 read?
**A.** 192 nM

**Q.** For B4, which EC50 is on record?
**A.** 0.75 nM

**Q.** Which EC50 does the source give for B5 here?
**A.** 1.06 nM

**Q.** Which EC50 does the source give for B6 here?
**A.** 181 nM

biological target: T2, SARS-CoV-2 B.1.617.2 spike trimer variant (SARS-CoV-2 B.1.617.2 (Delta), UniProt P0DTC2 16-1213); experiment: ELISA

**Q.** With B1 as the binder, how does the IC50 read?
**A.** 59.9 nM

**Q.** For B2, which IC50 is on record?
**A.** 19.5 nM

**Q.** B3 was tested. Which IC50 did it give?
**A.** 28 nM

**Q.** B4 was tested. Which IC50 did it give?
**A.** 17.5 nM

**Q.** How did the IC50 turn out when B7 was run?
**A.** 62.1 nM

**Q.** Which IC50 does the source give for B5 here?
**A.** 27.4 nM

biological target: T1, SARS-CoV-2 BA.2 spike trimer variant; experiment: ELISA; remark: another data set of the same source

**Q.** With B2 as the binder, how does the IC50 read?
**A.** 97.3 nM

**Q.** How did the IC50 turn out when B4 was run?
**A.** 25.8 nM

**Q.** For B5, which IC50 is on record?
**A.** 13.8 nM

biological target: T3, SARS-CoV-2 B.1.1.529 spike trimer variant (SARS-CoV-2 B.1.1.529 (Omicron), UniProt P0DTC2 16-1213); experiment: ELISA

**Q.** How did the IC50 turn out when B4 was run?
**A.** 23.4 nM

**Q.** B5 was tested. Which IC50 did it give?
**A.** 10.1 nM

biological target: SARS-CoV-2 Beta (B.1.351) variant prefusion stabilized spike trimer protein (UniProt P0DTC2 14-1213); experiment: ELISA

**Q.** B8 was tested. Which IC50 did it give?
**A.** 10.8 nM

**Q.** For B3, which IC50 is on record?
**A.** 84.3 nM

**Q.** For B4, which IC50 is on record?
**A.** 14 nM

**Q.** With B7 as the binder, how does the IC50 read?
**A.** 10.8 nM

**Q.** How did the IC50 turn out when B5 was run?
**A.** 16.8 nM

biological target: T2, SARS-CoV-2 B.1.617.2 spike trimer …; experiment: ELISA; remark: another data set of the same source

**Q.** For B1, which IC50 is on record?
**A.** 9 µg/mL and 59.9 nM

**Q.** B2 was tested. Which IC50 did it give?
**A.** 2.9 µg/mL and 19.5 nM

**Q.** Which IC50 does the source give for B3 here?
**A.** 4.2 µg/mL and 28 nM

**Q.** Which IC50 does the source give for B4 here?
**A.** 2.6 µg/mL and 17.5 nM

**Q.** How did the IC50 turn out when B7 was run?
**A.** 9.3 µg/mL and 62.1 nM

**Q.** For B5, which IC50 is on record?
**A.** 4.1 µg/mL and 27.4 nM

biological target: T1, SARS-CoV-2 BA.2 spike trimer variant; experiment: ELISA; remark: another data set of the same source

**Q.** B2 was tested. Which IC50 did it give?
**A.** 97 nM

**Q.** Which IC50 does the source give for B4 here?
**A.** 25.8 nM

**Q.** Which IC50 does the source give for B5 here?
**A.** 13.8 nM

biological target: T3, SARS-CoV-2 B.1.1.529 spike trimer …; experiment: ELISA; remark: another data set of the same source

**Q.** For B4, which IC50 is on record?
**A.** 23.4 nM

**Q.** With B5 as the binder, how does the IC50 read?
**A.** 10.1 nM

biological target: T3, SARS-CoV-2 B.1.1.529 spike trimer …; experiment: ELISA; remark: another data set of the same source

**Q.** B2 was tested. Which EC50 did it give?
**A.** 20.6 nM

**Q.** Which EC50 does the source give for B3 here?
**A.** 30.1 nM

**Q.** Which EC50 does the source give for B4 here?
**A.** 0.48 nM

**Q.** For B5, which EC50 is on record?
**A.** 0.5 nM

**Q.** Which EC50 does the source give for B6 here?
**A.** 1.88 nM

biological target: T2, SARS-CoV-2 B.1.617.2 spike trimer …; experiment: ELISA; remark: another data set of the same source

**Q.** For B1, which EC50 is on record?
**A.** 0.547 nM and 0.085 µg/mL

**Q.** How did the EC50 turn out when B2 was run?
**A.** 0.063 µg/mL and 0.405 nM

**Q.** For B3, which EC50 is on record?
**A.** 0.096 µg/mL and 0.625 nM

**Q.** Which EC50 does the source give for B9 here?
**A.** 29.3 nM and 4.54 µg/mL

**Q.** With B4 as the binder, how does the EC50 read?
**A.** 0.218 nM and 0.034 µg/mL

**Q.** Which EC50 does the source give for B7 here?
**A.** 0.522 nM and 0.081 µg/mL

**Q.** Which EC50 does the source give for B5 here?
**A.** 0.251 nM and 0.027 µg/mL

**Q.** For B6, which EC50 is on record?
**A.** 0.12 µg/mL and 0.772 nM

From patent publication US20230115257A1 (published 2023)
